# Data published in the nanobody polyreactivity screen of Harvey et al. (2022).
# Assay: yeast display, Sf9 membrane polyspecificity reagent, FACS + sequencing; frameworks hold sequencing errors
# Method in brief: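 Using colony PCR, genes from sorted yeast display clones were amplified, then sequenced on MiSeq at 2 × 250 and filtered by CDR length. The clones had been stained with 10% biotinylated, detergent-solubilized Sf9 membrane reagent for 1 hour at 4 °C and sorted by FACS into low and high (top ~1%) gates on anti-HA and streptavidin fluorescence. Polyreactivity labels come from the gate of origin.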
row,Sequence,polyreactivity (PSR sort gate)
1,QVQHLESGGGLVQAGRSLRLSCAASGSTFITNTMGWYIKATGKERELLAAISKSGGSTYYADSVKGRFTISRDNAKNTVYLQMNSLKPEDTAVYYCAADIYVRDRGVKYDYWGQGTQVTVSS,low polyreactivity
2,QVQHVDSGGGLVQARGTLRLSCSASGRNFGIYTMGWYRQPPVKERELVAAISWRGGSTYYADSVKGRFTISRDNAKNTVYFQLNSLKPEDTAVYYCGKTQPGWRPVRDQIRYGYWGQGTQVTVSA,high polyreactivity
3,QVQHVDSGGGLVQEGGSLRLICAASGSIFEQYTMGWYIQAPGKERELVAAISRRSGRTYYADSVKGRFTISRDNAKNTVYLQMNSLKPADTAVYYCAAQHAIYRNPGLDDYWGQGTQVTVSS,high polyreactivity
4,QVQHVESAAGLVQAGGSLRLTCAASGSIFRVYTMGWSRQAPGKERELVAAISRSGGRTYYADSVKGRFTISRDNAKNTVYLQMNSLKPEDTAVYYCAKRGRVTYPYYYWGQGTQVTVSS,high polyreactivity
5,QVQHVESAGGLVQAGGILRLSCAASGSTFVGNAMGWYRQAPGKEREWVATISNSGGRTDYADSVKGRFTISRDNAKNTVYLQMNSLKPEDTAVYYCAADHPAFGPGYSFDYWGQGTQVTVSS,low polyreactivity
6,QVQHVESAGGLVQAGGSLRLSCAASARTFRYYAMGWYRQSPGKERELVAAINYSGGRTYYADSVKGRFTISRDNAKITVYLQMNSLNPEDTAVYYCNAVLGSYLPKFDYWGQGTQVTVSS,high polyreactivity
7,QVQHVESARGLVHAGGSLRLSCAASGGTFQYYAMGLSRQAPGKERELVAAISSSGSTYYADSVKGRFTISRDNAKNTVYLQMNSLKPEDTAVYYCAAGHISIYYYTFYYWGQGTQVTVSS,high polyreactivity
8,QVQHVESGAGLVQAAGSLRLSCAASGSTFSSYALGWYRQAPGKERELVAAISHGDSTYYADSVKGRFTISRDNAKNTVYLQMNSLKPEDSAVYYCAALHEVWGVDYWGQGTHVTVSS,low polyreactivity
9,QVQHVESGARLVQAGGSLRLSCAASGHIFFDYTMGWSRQAPGKERELVAGITIGGSTNYADSVKGRFTISRDNAKNTVYLQMNSLKPEDTAVYYCNVVKYVYIYSYWEYYYWGQGTQVTVSS,low polyreactivity
10,QVQHVESGGALVKAGGSLRIRCAASGITFSKYAMGWYRQAPGKEMELVAAITRSGGSTYYADSVKGRFTISRDNGKNTVYLQMNSLKPEDTAVYSCIARGYFTGGDGGSGYWGQVTQVTVSS,high polyreactivity
11,QVQHVESGGALVQAGGSLRLSCAASGSTFTRNAMGWDRHAPGKERELVAAITSSGTSTYYADSVKGRFTISRDNAKNTVYLQMNSLKPEATAVYYCAAGIQSTYPKGGYRVTYYYWGQGTQVTVSS,high polyreactivity
12,QVQHVESGGCLDQAGGSLRLSCAASGIFRTNARGWYRTAPGKERELVAGISSGGGTNYADSVKGRFTISRDNAKNTVYLQMNSLKPEDTAVYSCAKERIYFYYWYVYSDLVYEYDYCGQGTQVTVSS,low polyreactivity
13,QVQHVESGGGFVQAGGSLRLSCAASGITFYDYTMGWYRPAPGKERELVDAITSSGVSTYYADSVKGRFTISRDNAKKTVYLQMNSLKPEDTAVYYCATDAWSVYSYLAFTYDYWGQGTQVTVSS,low polyreactivity
14,QVQHVESGGGIVQAGGSLRLSCAASGGIFGYYAMGWYRQAPGKEREFVATITRGGGSTYYADSVKGRFTISRDNAKNTVYLQMNSLKPEDSAVYYCNAKPSYYQRYIYWGQGTQVTVSS,high polyreactivity
15,QVQHVESGGGIVQAGGSLRLSCAASVRTIPYNAMGRYRQAPGKERELVAAISTGGSTNYADSVKGRFTISRDNAKNTVYLQMNSLKPEDTAVYYCNTRYRWARNWAYYYWGQGTQVTVSS,high polyreactivity
16,QVQHVESGGGIVQAGGSLRLTCAASGSTFGGNGMGWYRQAPGKEREFVATNTWRSVSTYYADSVKGRFTISRDNAKNTDFLQMISLKPEDTAVYYCAARLYRFASYRMDYWGQGTQVTVSS,high polyreactivity
17,QVQHVESGGGIVQAVGSLRLSCAASGSIFYYNAMGWYRQAPGKERELVAAISSGGSTYYADSVKGRFTISRDNAKNTVYLQMNSLKPEDTAVYYCAAKPAFRYLYSRYYPELGGYWGQGTQVTVSS,high polyreactivity
18,QVQHVESGGGLFQAGGSLRLSCAASGRIFSYYAMGWYRQAPGKERELVAAINWNGGRTYYADSVKGRFTISRDNAKNSVYLQMNSLKPEDTAVYYCNARYSGKYDYWRQGTQVTVSS,high polyreactivity
19,QVQHVESGGGLLQAGGSLRLICAAYGSTFGTYAMGWYRQAPGKERELVATISIGGITYYADSVKGRFTNSRDNAKYTVYLQMNSLKPEVTAVYYCAKDVTDATSRSDPSGDDYWGQGTQVTVSS,low polyreactivity
20,QVQHVESGGGLLQAGGSLRLSCAASGRIFYGNAMGWYRQATGKERELVAAILWRGGTTYYADSVKGRFTISRDNAMNTVYLLMISLKPEDTSDYNCTADEPYKYYYWGQGTQVTVSS,low polyreactivity

row,Sequence,polyreactivity (PSR sort gate)
1,QVQHVESGGGLLQAGGSLRLSCAASGSIFYVYAMGWYRQAPGKERELVASISCGDSSTYYADSVKGRFTISRDNAKNTVYLQMNILIPEDTAVYYCAADDYRQYALYDYWGQGTHVTVSS,low polyreactivity
2,QVQHVESGGGLVHAGGSLRLSCAASGLIFRNNAMVLYRQAPGTERELDASITSDGSTNYADSVKGRFRISRDNAKNSFYLQMNSLKPEDTAVYYCAADGYTYWYYQLIPDYDYWGQGTQVTVSS,low polyreactivity
3,QVQHVESGGGLVHPGGILRLSCAASGLTFGRNAMGWYRQAPGKERELVAAISRSGGRTSYADSVKGRLTISRDNAKNTVYLQMNSLKPEDTAVYYCAARSPIYRTTYDYWGQGTQVTVSS,high polyreactivity
4,QVQHVESGGGLVQAGASLRLSCAASRRTFYRYAMGWSRQAPGKERELVAAISSGGSTNYADCVKGRFTISRDNAKNTVYLHMNRLKPEDTAVYYCAAETRLHRQDYDYWGQGTQVTVSS,low polyreactivity
5,QVQHVESGGGLVQAGCSLRLSCAASGRIFKPYVMGWYRQAPGKETELVSAISWSGGASTYYADSVKGRFTISRDNAKNTVYLQMNSLKPEDTAVYYCAADPFTIPTSEFYYWGQGTQVTVSS,low polyreactivity
6,QVQHVESGGGLVQAGCSLRLSCAASGRTFTYYAMGWYRQARGKESELVATISWRGSSTYYADSVKGRFTISRDNAKNTVYLQMNSLKPEDTAFYYCAARTYRWGYEDNYWGQGTQVTVSS,high polyreactivity
7,QVQHVESGGGLVQAGGSHRLSCAASGRTFDTNDMGWYRQPPGKERELVAVITARGGNTSYADSVKGRFTISRDNAKNPVYLQMNSLKPEDTAVYYCAAESQSTSYGLDYWGQGTQVTVSS,low polyreactivity
8,QVQHVESGGGLVQAGGSLGLSCAASGRIFGVYAMGWYTQAPGKERELVAAIWSGGSTYYADSVKGRFTISRDNAKNTVYLQMNSLKPEDTAVYYCAADDAYSHRSLYSHNDYWGQGNQVTVSS,low polyreactivity
9,QVQHVESGGGLVQAGGSLRLNCAASGSTFFGNAMGWYRQAPGKERELVAAISGSGGSTYYADSVKGRFTISRDNAKNTVYLQMNSLKPEDTAVYYCAKYYLTGLARYDYWGQGTQVTVSS,high polyreactivity
10,QVQHVESGGGLVQAGGSLRLSCAASGFIFGYYTMGWSRQAPGKERELVAAITSGDSTNYADSVKGRFTISRDNAKNTVYLQMNSLKPEDTAVYYCNARGLFTWMDYWGQGTQVTVSS,low polyreactivity
11,QVQHVESGGGLVQAGGSLRLSCAASGFTFHRYAMGWYRQAAGKERELVARISRSAGSTYYADSVKGRFTISRDNAKNTVYLQMNSLKPEDTAVYYCAAAQRRYGRGYGYWGQGTQVTVSS,high polyreactivity
12,QVQHVESGGGLVQAGGSLRLSCAASGFTFKFYTMGWYRQAPGKERELVAAISRSGGTTYYADSVKGRFTISRDNAKNTVYLQMTSLKPEDTAVYYCAAPRTKYLSKYGYWGQGTQVTVSS,high polyreactivity
13,QVQHVESGGGLVQAGGSLRLSCAASGFTFNYYAMGWYRQAPGKERELVAAITSSGGSTYYADSVKGRFTISRDNAKNTVYLQMNSLKPEDTAVYYCNAAVYAHRYIDGFDYWGQGTQVTVSS,high polyreactivity
14,QVQHVESGGGLVQAGGSLRLSCAASGFTFPSYAMGWYRQAPGKERELVAGISRGGTRTYYADSVKGRFTISRDNAKNTVYLQMYSLKPEDTAVYYCAATHGLRIRFPGDYWGQGTQVTVSS,high polyreactivity
15,QVQHVESGGGLVQAGGSLRLSCAASGFTFRVYAMGWYRQARGKEMELVAAISRSGGSTYYADSVKRRFTISRDNEKNTVYLQMNSLKPEDTAVYYCGGGWKRGRYDYWGQGTQVTVSS,high polyreactivity
16,QVQHVESGGGLVQAGGSLRLSCAASGFTFWYYAMGWYRRATGKERELIASISSIGGSTYYADSVKGRYTISRDNAKNTVYLQMNSLKAEDTAVYYCAARYKFLRGGVRRDYWGQGTQVTVSS,high polyreactivity
17,QVQHVESGGGLVQAGGSLRLSCAASGFTFYSYAMGWYRQAPGKERELVASITSGGSTYYADSVKGRFTISRDNAKNTVYLQMNSLKPEDTAVYYCAAPAVKPRRSYYYWGQGTQVTVSS,high polyreactivity
18,QVQHVESGGGLVQAGGSLRLSCAASGFTLFWNDMGWYRQAPGKERELVAAITSGDDTYADSVKGRFTISRDNAKNTVYLQMNSLKPEDTAVYYCNKDDPLRNVAQVILYEFYYWGQGTQVTVSS,low polyreactivity
19,QVQHVESGGGLVQAGGSLRLSCAASGFTSSRNAMGWSRQAPGKERELVATISSGGDTYYADSVKGRFTISRDNAKNSVYLQMNSLKPEYTAVYYCNKDTLYAWGYDYWGQGTQVTVSS,low polyreactivity
20,QVQHVESGGGLVQAGGSLRLSCAASGGIFYVNAMGWYRQEPGKERELVADITSDGVSKYYADSVKGRFTISRDNAKNTVYLQMNRLKPEDTAVYYCGGDNGGAGYYYGYVWYDYWGQGTQVTVSS,low polyreactivity
